The target in this assay is CXC chemokine receptor type 4 (CXCR4) (human, UniProt P61073 1-352). Description: cell-based or functional assay.

“And” between values parts separate entries of the source, which are not always exact repeats. Equal entries are not always repeated. Where no end group is shown, it is not given here. Side-chain parts run from the residue outwards. [ ]: non-standard residue; d: D form. The star is where a group is joined. Stearoyl = CCCCCCCCCCCCCCCCCC(=O)*; Palmitoyl = CCCCCCCCCCCCCCCC(=O)*; Myristoyl = CCCCCCCCCCCCCC(=O)*; Glu = glutamate linker; Chl = cholesterol

CXC chemokine receptor type 4 (CXCR4), sequence (P61073 whole entry): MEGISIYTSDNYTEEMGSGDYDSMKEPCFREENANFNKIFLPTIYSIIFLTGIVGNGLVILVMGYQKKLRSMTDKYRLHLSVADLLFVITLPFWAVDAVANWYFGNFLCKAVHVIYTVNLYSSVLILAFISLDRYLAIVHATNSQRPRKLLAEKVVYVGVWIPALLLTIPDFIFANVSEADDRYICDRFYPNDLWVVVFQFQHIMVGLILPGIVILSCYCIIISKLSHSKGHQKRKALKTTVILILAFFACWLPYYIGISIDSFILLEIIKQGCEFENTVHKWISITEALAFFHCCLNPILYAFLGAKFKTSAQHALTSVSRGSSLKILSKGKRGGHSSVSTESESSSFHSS

In the case of [dL]MRWSRK(Palmitoyl)MPCVS [JM#176], the “IC50, HIV inhibition assay” value was > 150 nM.
On to ILRWSRKFPCVS [JM#22], for which the “IC50, X4-HIV-1 inhibition assay” value is < 5 nM.
Same read-out and setting: the figure for ILRWSRK-NH2 (not fully specified (residue 7)) [JM#192] is < 5 nM and 2 nM.
Take IYRWSRKMPCLS [JM#146]: the “IC50, HIV inhibition assay” value is > 150 nM.
On the same count and under the same terms, the value for IVRWSK(Palmitoyl)KVPCVS [JM#168] was > 150 nM.
In the case of ILRWSRKMPCVS [JM#13], the “IC50, X4-HIV-1 inhibition assay” value was < 5 nM.
As for ILRWSRK([Glu-Palmitoyl])LPSVS [SEQ ID NO.: 163], the “IC50, HIV inhibition assay” value was > 150 nM.

B1: JM#179 (peptide)
peptide: M[dL]RWSRK(Palmitoyl)LP-NH2
modifications: N-terminus assumed
SMILES: CCCCCCCCCCCCCCCC(=O)NCCCC[C@H](NC(=O)[C@H](CCCNC(=N)N)NC(=O)[C@H](CO)NC(=O)[C@H](Cc1c[nH]c2ccccc12)NC(=O)[C@H](CCCNC(=N)N)NC(=O)[C@@H](CC(C)C)NC(=O)[C@@H](N)CCSC)C(=O)N[C@@H](CC(C)C)C(=O)N1CCC[C@H]1C(N)=O
B1: the “IC50, HIV inhibition assay” value was > 150 nM.
For the molecule ILRWSRK-NH2 (not fully specified (residue 7)) [JM#255], the “IC50, X4-HIV-1 inhibition assay” value is < 5 nM.

B2: JM#181 (peptide)
peptide: M[dL]RWSRK(Palmitoyl)-NH2
modifications: N-terminus assumed
SMILES: CCCCCCCCCCCCCCCC(=O)NCCCC[C@H](NC(=O)[C@H](CCCNC(=N)N)NC(=O)[C@H](CO)NC(=O)[C@H](Cc1c[nH]c2ccccc12)NC(=O)[C@H](CCCNC(=N)N)NC(=O)[C@@H](CC(C)C)NC(=O)[C@@H](N)CCSC)C(N)=O
On to B2, for which the “IC50, HIV inhibition assay” value was > 150 nM.
On to ILRWSRKLPCVS (not fully specified (residue 7)) [JM#204], for which the “IC50, HIV inhibition assay” value was > 150 nM.
On the same count and under the same terms, the value for VLRWSRKLPCVS [JM#189] was > 150 nM.
As to [dL]MRWSRK-NH2 (not fully specified (residue 7)) [JM#194], the “IC50, X4-HIV-1 inhibition assay” value was < 5 nM and 2 nM.
As for [dI]LRWSRK(Palmitoyl)-NH2 [JM#237], the “IC50, HIV inhibition assay” value was > 150 nM.
As to ILRWSRKLPCVS (also: peptide copies coupled to the two different ends of PEG 20 kDa) [SC029], the “IC50, HIV-1 inhibition assay” value was 98 nM.
In the case of ILRWSRK([Glu-Palmitoyl])MPCLS [JM#148], the “IC50, HIV inhibition assay” value was > 150 nM.
Turning to ILRWSRKLPCVS (also: coupled to PEG 20 kDa, site not given here) [SC024], the “IC50, HIV-1 inhibition assay” value came to 118 nM.
Turning to ILRWSRK(Stearoyl)LPCVS [JM#182], the “IC50, HIV inhibition assay” value is > 150 nM.
Still for that read-out and setting: the value for ILRWSRKLPCK([Glu-Palmitoyl])S [JM#145] was > 150 nM; that for [dI]LRWSRK-NH2 [JM#173] was > 150 nM.
In the case of ILRWSRKMPCFS [JM#19], the “IC50, HIV inhibition assay” value was in the range of 5 to 10 nM.
As to IMRWSRKMPCVS [JM#17], the “IC50, X4-HIV-1 inhibition assay” value was < 5 nM.
Still for that read-out and setting: the value for ILRWSRKMPCMS [JM#20] was < 5 nM.
Take ILRWSRK(Dec)LPCVS [JM#215]: the “IC50, HIV inhibition assay” value was > 150 nM.
For the molecule ILRWSRKMPCLS [JM#18], the “IC50, X4-HIV-1 inhibition assay” value was < 5 nM.

B3: JM#261 (peptide)
peptide: [dL]LRWSRK(Myristoyl)-NH2
modifications: N-terminus assumed
SMILES: CCCCCCCCCCCCCC(=O)NCCCC[C@H](NC(=O)[C@H](CCCNC(=N)N)NC(=O)[C@H](CO)NC(=O)[C@H](Cc1c[nH]c2ccccc12)NC(=O)[C@H](CCCNC(=N)N)NC(=O)[C@H](CC(C)C)NC(=O)[C@H](N)CC(C)C)C(N)=O
For the molecule B3, the “IC50, HIV inhibition assay” value is > 150 nM.
IVRWSKKVPSVS [JM#151]: the “IC50, HIV inhibition assay” value was > 150 nM.
Still for that read-out and setting: the figure for [dI]LRWSRK(Palmitoyl)LP-NH2 [JM#175] is > 150 nM.

B4: JM#236 (peptide)
peptide: [dL]LRWSRK(Palmitoyl)-NH2
modifications: N-terminus assumed
SMILES: CCCCCCCCCCCCCCCC(=O)NCCCC[C@H](NC(=O)[C@H](CCCNC(=N)N)NC(=O)[C@H](CO)NC(=O)[C@H](Cc1c[nH]c2ccccc12)NC(=O)[C@H](CCCNC(=N)N)NC(=O)[C@H](CC(C)C)NC(=O)[C@H](N)CC(C)C)C(N)=O
On to B4, for which the “IC50, HIV inhibition assay” value is > 150 nM.
Same read-out and setting: the value for Ac-ILRWSRKLPCVS [JM#185] was > 150 nM; that for IVRWSK(Palmitoyl)K-NH2 [JM#164] was > 150 nM; that for IVRWSKK(Palmitoyl)-NH2 [JM#165] was > 150 nM.
As for ILRWSRKLPCVS (also: PEG-coupled, average 5 kDa) [SC033], the “IC50, HIV-1 inhibition assay” value was determined as 716 nM.
As for ILRWSRK(Chl)LPCVS [JM#184], the “IC50, HIV inhibition assay” value is > 150 nM.

(Values after patent US20230131339A1, “EPI-X4 BASED PEPTIDES AND DERIVATIVES THEREOF” (Universitaet Ulm, priority 2020, published 2023).)
